The record followed here is patent publication US20060264616.

For data set [1], the target named is reconstituted tissue factor (Innovin, Dade) and membrane (UniProt P13726).
Data set [2] concerns the target T1, reconstituted tissue factor (Innovin, Dade) and membrane, P13726.
T1 chain: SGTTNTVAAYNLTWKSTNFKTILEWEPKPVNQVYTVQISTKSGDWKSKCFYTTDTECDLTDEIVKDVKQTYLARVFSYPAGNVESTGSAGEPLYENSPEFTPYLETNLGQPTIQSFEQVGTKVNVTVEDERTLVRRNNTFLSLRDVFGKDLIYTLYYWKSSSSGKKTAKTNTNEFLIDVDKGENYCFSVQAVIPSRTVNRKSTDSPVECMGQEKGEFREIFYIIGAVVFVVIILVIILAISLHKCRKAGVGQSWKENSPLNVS

Consider Factor VII mutant Q11E33I34F35, for which the “activity (competitive assay described in Example 6)” value in data set [1] is listed as “displayed similar activity as the Q11E33F34I35 mutant”.

B1: factor VII F5K (protein)
chain: ANAKLEELRPGSLERECKEEQCSFEEAREIFKDAERTKLFWISYSDGDQCASSPCQNGGSCKDQLQSYICFCLPAFEGRNCETHKDDQLICVNENGGCEQYCSDHTGTKRSCRCHEGYSLLADGVSCTPTVEYPCGKIPILEKRNASKPQGRIVGGKVCPKGECPWQVLLLVNGAQLCGGTLINTIWVVSAAHCFDKIKNWRNLIAVLGEHDLSEHDGDEQSRRVAQVIIPSTYVPGTTNHDIALLRLHQPVVLTDHVVPLCLPERTFSERTLAFVRFSLVSGWGQLLDRGATALELMVLNVPRLMTQDCLQQSRKVGDSPNITEYMFCAGYSDGSKDSCKGDSGGPHATHYRGTWYLTGIVSWGQGCATVGHFGVYTRVSQYIEWLQKLMRSEPRPGVLLRAPFP
B1: the “activity in the competitive assay described in Example 6” value in data set [2] is listed as “a protein with 33% of the activity of wild type factor VII”.

B2: Factor VII mutant Q11E33F34I35 (protein)
chain: ANAFLEELRQGSLERECKEEQCSFEEAREIFEFIERTKLFWISYSDGDQCASSPCQNGGSCKDQLQSYICFCLPAFEGRNCETHKDDQLICVNENGGCEQYCSDHTGTKRSCRCHEGYSLLADGVSCTPTVEYPCGKIPILEKRNASKPQGRIVGGKVCPKGECPWQVLLLVNGAQLCGGTLINTIWVVSAAHCFDKIKNWRNLIAVLGEHDLSEHDGDEQSRRVAQVIIPSTYVPGTTNHDIALLRLHQPVVLTDHVVPLCLPERTFSERTLAFVRFSLVSGWGQLLDRGATALELMVLNVPRLMTQDCLQQSRKVGDSPNITEYMFCAGYSDGSKDSCKGDSGGPHATHYRGTWYLTGIVSWGQGCATVGHFGVYTRVSQYIEWLQKLMRSEPRPGVLLRAPFP
For B2, the “activity in the competitive assay described in Example 6” value in data set [2] is “The activity of the resulting mutant Q11E33F34135 was 60% that of the Q11E33F34 mutant”.

B3: factor VII mutant Q11E33D36 (protein)
chain: ANAFLEELRQGSLERECKEEQCSFEEAREIFEDADRTKLFWISYSDGDQCASSPCQNGGSCKDQLQSYICFCLPAFEGRNCETHKDDQLICVNENGGCEQYCSDHTGTKRSCRCHEGYSLLADGVSCTPTVEYPCGKIPILEKRNASKPQGRIVGGKVCPKGECPWQVLLLVNGAQLCGGTLINTIWVVSAAHCFDKIKNWRNLIAVLGEHDLSEHDGDEQSRRVAQVIIPSTYVPGTTNHDIALLRLHQPVVLTDHVVPLCLPERTFSERTLAFVRFSLVSGWGQLLDRGATALELMVLNVPRLMTQDCLQQSRKVGDSPNITEYMFCAGYSDGSKDSCKGDSGGPHATHYRGTWYLTGIVSWGQGCATVGHFGVYTRVSQYIEWLQKLMRSEPRPGVLLRAPFP
For the molecule B3, in data set [2], the “activity in the competitive assay described in Example 6” value is given as “had 70% the activity of the Q11E33 mutant”.
